The values below come from US20250382362A1 (UNIVERSIT TSKLINIKUM REGENSBURG, published 2025).

T1: human IL3 (human, UniProt P08700 20-152)
T1 sequence: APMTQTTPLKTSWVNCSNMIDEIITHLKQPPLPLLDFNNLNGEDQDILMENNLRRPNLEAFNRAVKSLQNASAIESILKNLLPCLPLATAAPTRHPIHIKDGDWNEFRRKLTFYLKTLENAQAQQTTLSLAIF

B1: Chimeric P8C11 (antibody, V domains shown)
VH: QVQLQQSGAEMVRPGVSVKIACKGSGFTFTDYALHWVKQSHAKSLEWIGLISTYYGDTTYNQRFKGKATMTVDKSSSTAYMELARLTSEDSAIYYCVITTVAGTDAMDYWGQGTSVTVSS
VL: DIQMNQSPSSLSASLGDTITITCHASQNINVWLSWYQQKPGNIPKLLIYKASNLHTGVPSRFSGSGSGTGFTLTISSLQPEDIATYYCQQGYSYPYTFGGGTKLEIK
B2: HC3 × MuLC (antibody, V domains shown)
VH: QVQLVQSGAEMKKPGASVKVACKGSGFTFTDYALHWVRQAPGQRLEWMGLISTYYGDTTYNQRFKGRVTITRDTSASTAYMELSSLRSEDTAIYYCVITTVAGTDAMDYWGQGTLVTVSS
VL: B1 VL
B3: MuHC × LC2 (antibody, V domains shown)
VH: B1 VH
VL: B1 VL with N5T, L15V, T18R, I19V, N42K, I43A, G70D, L73F
B4: HC8 × LC2 (antibody, V domains shown)
VH: B2 VH with A21S, G24A, I70M, R72V, T74K, A76S
VL: B1 VL with N5T, L15V, T18R, I19V, N42K, I43A, G70D, L73F
B5: HC9 × LC2 (antibody, V domains shown)
VH: B2 VH with I70M, R72V, T74K
VL: B1 VL with N5T, L15V, T18R, I19V, N42K, I43A, G70D, L73F
B6: HC7 × LC2 (antibody, V domains shown)
VH: B2 VH with M11V, I70M, R72V, T74K, A76S, I93V
VL: B1 VL with N5T, L15V, T18R, I19V, N42K, I43A, G70D, L73F
B7: HC10 × LC2 (antibody, V domains shown)
VH: B2 VH with R72V, T74K
VL: B1 VL with N5T, L15V, T18R, I19V, N42K, I43A, G70D, L73F
B8: HC12 × LC2 (antibody, V domains shown)
VH: B2 VH with M11V, I70M, R72V, T74K, A76T, I93V
VL: B1 VL with N5T, L15V, T18R, I19V, N42K, I43A, G70D, L73F
B9: HC14 × LC2 (antibody, V domains shown)
VH: B2 VH with M11V, A21S, I70M, R72A, T74K, A76T, I93V
VL: B1 VL with N5T, L15V, T18R, I19V, N42K, I43A, G70D, L73F
B10: HC11 × LC2 (antibody, V domains shown)
VH: B2 VH with M11V, I70M, R72A, T74K, A76T, I93V
VL: B1 VL with N5T, L15V, T18R, I19V, N42K, I43A, G70D, L73F
B11: HC13 × LC2 (antibody, V domains shown)
VH: B2 VH with M11V, I70M, R72A, T74K, A76S, I93V
VL: B1 VL with N5T, L15V, T18R, I19V, N42K, I43A, G70D, L73F
B12: HC15 × LC2 (antibody, V domains shown)
VH: B2 VH with M11V, G24A, I70M, R72A, T74K, A76T, I93V
VL: B1 VL with N5T, L15V, T18R, I19V, N42K, I43A, G70D, L73F
B13: HC3.MMH × muLC (antibody, V domains shown)
VH: QVQLQQSGAEMVRPGVSVKIACKGSGFTFTDYALHWVKQSHAKSLEWIGLISTYYGDTTYNQRFKGRVTITRDTSASTAYMELSSLRSEDTAIYYCVITTVAGTDAMDYWGQGTLVTVSS
VL: B1 VL
B14: HC3.HMM × muLC (antibody, V domains shown)
VH: B1 VH with Q5V, V12K, R13K, V16A, I20V
VL: B1 VL
B15: HC3.MHM × muLC (antibody, V domains shown)
VH: B1 VH with K38R, S40A, H41P, A42G, K43Q, S44R, I48M
VL: B1 VL
B16: HC6 × LC2 (antibody, V domains shown)
VH: B2 VH with I70M, R72V, T74K, A76S
VL: B1 VL with N5T, L15V, T18R, I19V, N42K, I43A, G70D, L73F
B17: HC5 × LC2 (antibody, V domains shown)
VH: B2 VH with S84A, S85R, R87T, T91S, L115S
VL: B1 VL with N5T, L15V, T18R, I19V, N42K, I43A, G70D, L73F
B18: HC4 × LC2 (antibody, V domains shown)
VH: B2 VH with R67K, V68A, I70M, R72V, T74K, A76S
VL: B1 VL with N5T, L15V, T18R, I19V, N42K, I43A, G70D, L73F
B19: HC1 × LC2 (antibody, V domains shown)
VH: B2 VH with M11V, A21S, G24A, I93V
VL: B1 VL with N5T, L15V, T18R, I19V, N42K, I43A, G70D, L73F
B20: HC2 × LC1 (antibody, V domains shown)
VH: QVQLVQSGSELKKPGASVKVSCKASGFTFTDYALHWVRQAPGQGLEWMGLISTYYGDTTYNQRFKGRFVFSLDTSVSTAYLQISSLKAEDTAVYYCVITTVAGTDAMDYWGQGTLVTVSS
VL: B1 VL with N5T, L11V, L15V, T18R, I19V, N42K, I43A, G70D, I83F
B21: HC1 × LC1 (antibody, V domains shown)
VH: B2 VH with M11V, A21S, G24A, I93V
VL: B1 VL with N5T, L11V, L15V, T18R, I19V, N42K, I43A, G70D, I83F
B22: HC1 × LC3 (antibody, V domains shown)
VH: B2 VH with M11V, A21S, G24A, I93V
VL: B1 VL with N5T, L15V, T18R, I19V, N42K, I43V, G70D, I83V
B23: HC2 × LC3 (antibody, V domains shown)
VH: B20 VH
VL: B1 VL with N5T, L15V, T18R, I19V, N42K, I43V, G70D, I83V
B24: HC2 × LC2 (antibody, V domains shown)
VH: B20 VH
VL: B1 VL with N5T, L15V, T18R, I19V, N42K, I43A, G70D, L73F
B25: HC3 × LC1 (antibody, V domains shown)
VH: B2 VH
VL: B1 VL with N5T, L11V, L15V, T18R, I19V, N42K, I43A, G70D, I83F
B26: HC3 × LC2 (antibody, V domains shown)
VH: B2 VH
VL: B1 VL with N5T, L15V, T18R, I19V, N42K, I43A, G70D, L73F
B27: HC3 × LC3 (antibody, V domains shown)
VH: B2 VH
VL: B1 VL with N5T, L15V, T18R, I19V, N42K, I43V, G70D, I83V

Numbering of substitutions follows the chain as printed.

In one assay the target is T1, human IL3. Nature of the assay: cell-based or functional assay.
Take B1: the “Inhibitory activity (block of IL-3 induced downregulation of CD131 on primary human basophils; chimeric P8C11 normalized to 100%)” value came to 100%.
Same read-out and setting: under B2 stands 6%; under B3, 100%.

The target of a further assay is T1, human IL3. The experiment in a line: cell-based or functional assay. The source holds these as a separate data set.
For B1, the “Inhibitory activity (block of IL-3 induced downregulation of CD131 on primary human basophils; chimeric P8C11 normalized to 100%)” value was found to be 100%.
On the same count and under the same terms, under B4 stands 25%; under B5, 50%.
Same read-out and setting: under B6 stands 100%; under B7, 40%.

For another assay, the target named is T1, human IL3. The experiment in a line: cell-based or functional assay. This is another data set of the same source.
Consider B1, for which the “Inhibitory activity (block of IL-3 induced downregulation of CD131 on primary human basophils; chimeric P8C11 normalized to 100%)” value turned out to be 100%.
Still for that read-out and setting: under B8 stands 100%; under B9, 25%.
Consider B10, for which the “Inhibitory activity (block of IL-3 induced downregulation of CD131 on primary human basophils; chimeric P8C11 normalized to 100%)” value was 25%.
Still for that read-out and setting: under B11 stands 25%; under B12, 8%.

The next assay addresses T1, human IL3. Nature of the assay: cell-based or functional assay. This is another data set of the same source.
In the case of B1, the “Inhibitory activity (block of IL-3 induced downregulation of CD131 on primary human basophils; chimeric P8C11 normalized to 100%)” value was found to be 100%.
Same read-out and setting: the value for B13 was 4%; that for B14 was 100%.
On the same count and under the same terms, under B15 stands 100%.

In another assay the target is T1, human IL3. The experiment in a line: cell-based or functional assay. This is another data set of the same source.
On to B1, for which the “Inhibitory activity (block of IL-3 induced downregulation of CD131 on primary human basophils; chimeric P8C11 normalized to 100%)” value came out at 100%.
Same read-out and setting: under B16 stands 100%; under B17, 9%.
On the same count and under the same terms, under B18 stands 100%.

The next assay has as its target T1, human IL3. The experiment in a line: cell-based or functional assay. The source holds these as a separate data set.
In the case of B1, the “Inhibitory activity (block of IL-3 induced downregulation of CD131 on primary human basophils; chimeric P8C11 normalized to 100%)” value is 100%.
B19: the “Inhibitory activity (block of IL-3 induced downregulation of CD131 on primary human basophils; chimeric P8C11 normalized to 100%)” value is 2%.
On to B20, for which the “Inhibitory activity (block of IL-3 induced downregulation of CD131 on primary human basophils; chimeric P8C11 normalized to 100%)” value is 0.5%.
On the same count and under the same terms, under B21 stands 2%; under B22, 2%.
Still for that read-out and setting: the value for B23 was 0.5%; that for B24 was 0.5%.
Same read-out and setting: the value for B25 was 6%; that for B26 was 6%.
With B27, the “Inhibitory activity (block of IL-3 induced downregulation of CD131 on primary human basophils; chimeric P8C11 normalized to 100%)” value worked out at 6%.
